According to patent publication US20200040059A1:

Tests used:
[1] = biological target: PD-1 (Homo sapiens (Human)) (UniProt Q15116); assay: flow cytometry, Jurkat/PD-1 cells
[2] = biological target: PD-1-Fc; assay: Fortebio (BLI), PD-1-Fc
[3] = biological target: PD-1 (Homo sapiens (Human)) (UniProt Q15116); assay: flow cytometry, Jurkat/PD-1 cells; vs wildtype PD-L2 IgV-Fc
[4] = biological target: PD-1 (Homo sapiens (Human)) (UniProt Q15116); assay: flow cytometry, cells expressing PD-1; vs WT PD-L1 (IgV + IgC) Fc
[5] = biological target: PD-1 (Homo sapiens (Human)) (UniProt Q15116); assay: flow cytometry, cells expressing PD-1
[6] = biological target: CD80 (Homo sapiens (Human)) (UniProt P33681); assay: flow cytometry, cells expressing CD80
[7] = biological target: human ICOS as used for the 'ICOS OD' read-out of Table 14 (human); assay: binding read as OD; format not described
[8] = biological target: T1, TIGIT (human) (UniProt Q495A1); assay: flow cytometry, transfected cells
T1 sequence: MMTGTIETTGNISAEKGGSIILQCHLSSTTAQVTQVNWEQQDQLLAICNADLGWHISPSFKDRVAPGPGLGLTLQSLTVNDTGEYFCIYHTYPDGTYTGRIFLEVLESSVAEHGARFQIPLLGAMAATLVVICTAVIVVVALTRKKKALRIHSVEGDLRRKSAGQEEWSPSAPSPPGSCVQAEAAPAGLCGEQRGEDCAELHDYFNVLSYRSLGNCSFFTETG

[9] = biological target: T2, CD226 (human) (UniProt Q15762); assay: flow cytometry, transfected cells
T2 sequence: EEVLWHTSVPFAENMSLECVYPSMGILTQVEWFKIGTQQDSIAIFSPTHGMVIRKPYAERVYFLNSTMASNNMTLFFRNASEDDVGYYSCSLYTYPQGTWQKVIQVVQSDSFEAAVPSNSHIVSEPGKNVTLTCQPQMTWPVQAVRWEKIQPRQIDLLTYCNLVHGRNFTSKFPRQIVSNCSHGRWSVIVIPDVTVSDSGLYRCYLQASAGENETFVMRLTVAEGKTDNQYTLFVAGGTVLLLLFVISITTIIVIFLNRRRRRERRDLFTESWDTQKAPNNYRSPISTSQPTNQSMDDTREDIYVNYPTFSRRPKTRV

[10] = biological target: T3, CD96 (UniProt P40200); assay: flow cytometry, cells
T3 sequence (looked up): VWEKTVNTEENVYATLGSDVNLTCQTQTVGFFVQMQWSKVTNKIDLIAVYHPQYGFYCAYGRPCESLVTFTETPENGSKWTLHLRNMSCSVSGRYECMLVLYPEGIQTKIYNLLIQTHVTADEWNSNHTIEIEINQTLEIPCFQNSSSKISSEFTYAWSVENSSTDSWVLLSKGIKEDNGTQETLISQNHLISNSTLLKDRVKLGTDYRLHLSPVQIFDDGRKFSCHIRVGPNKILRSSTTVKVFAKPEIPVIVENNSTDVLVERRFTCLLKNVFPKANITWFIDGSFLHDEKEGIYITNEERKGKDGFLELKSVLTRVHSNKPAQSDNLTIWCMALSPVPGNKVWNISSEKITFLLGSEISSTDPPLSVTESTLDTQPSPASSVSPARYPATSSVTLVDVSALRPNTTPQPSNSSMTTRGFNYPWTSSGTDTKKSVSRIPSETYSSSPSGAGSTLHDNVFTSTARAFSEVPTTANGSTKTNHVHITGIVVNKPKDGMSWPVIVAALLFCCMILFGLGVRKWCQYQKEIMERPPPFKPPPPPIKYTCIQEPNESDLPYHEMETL

[11] = biological target: CD28 (human) (UniProt P10747); assay: flow cytometry, transfected cells
[12] = biological target: CTLA4 (human) (UniProt P16410); assay: flow cytometry, transfected cells
[13] = biological target: PD-L1 (human) (UniProt Q9NZQ7); assay: flow cytometry, transfected cells
[14] = biological target: T2, CD226 (human); assay: flow cytometry on CD226-expressing cells
[15] = biological target: T3, CD96; assay: flow cytometry on CD96-expressing cells
[16] = biological target: T1, TIGIT (human); assay: flow cytometry, TIGIT-expressing cells
[17] = biological target: T3, CD96; assay: flow cytometry, CD96-expressing cells
[18] = biological target: T2, CD226 (human); assay: flow cytometry, CD226-expressing cells
[19] = biological target: PD-1 on Jurkat/PD-1 cells; assay: flow cytometry on Jurkat/PD-1 cells, 50 nM
[20] = biological target: PD-1 on Jurkat/PD-1 cells; assay: flow cytometry, 50 nM; ratio to wild type PD-L1 IgV-Fc

Chain of PD-1 (Homo sapiens (Human)) (Q15116 21-288 limits assumed, form in doubt): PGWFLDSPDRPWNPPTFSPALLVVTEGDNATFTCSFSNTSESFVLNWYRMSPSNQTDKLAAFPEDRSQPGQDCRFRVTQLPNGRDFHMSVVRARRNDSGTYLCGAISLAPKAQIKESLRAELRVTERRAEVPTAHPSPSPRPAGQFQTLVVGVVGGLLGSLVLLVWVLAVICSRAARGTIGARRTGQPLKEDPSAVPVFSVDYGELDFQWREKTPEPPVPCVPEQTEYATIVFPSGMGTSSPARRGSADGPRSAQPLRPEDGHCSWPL
Chain of CD155 Wild type IgV-Fc (P15151 24-139 limits assumed): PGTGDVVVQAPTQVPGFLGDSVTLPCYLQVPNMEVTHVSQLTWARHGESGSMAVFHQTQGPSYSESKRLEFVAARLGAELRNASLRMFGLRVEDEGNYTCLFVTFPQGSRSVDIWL
Chain of Domain 1: CD80 WT / Domain 2: CD80 WT / Fc (Fc fusion) (chain): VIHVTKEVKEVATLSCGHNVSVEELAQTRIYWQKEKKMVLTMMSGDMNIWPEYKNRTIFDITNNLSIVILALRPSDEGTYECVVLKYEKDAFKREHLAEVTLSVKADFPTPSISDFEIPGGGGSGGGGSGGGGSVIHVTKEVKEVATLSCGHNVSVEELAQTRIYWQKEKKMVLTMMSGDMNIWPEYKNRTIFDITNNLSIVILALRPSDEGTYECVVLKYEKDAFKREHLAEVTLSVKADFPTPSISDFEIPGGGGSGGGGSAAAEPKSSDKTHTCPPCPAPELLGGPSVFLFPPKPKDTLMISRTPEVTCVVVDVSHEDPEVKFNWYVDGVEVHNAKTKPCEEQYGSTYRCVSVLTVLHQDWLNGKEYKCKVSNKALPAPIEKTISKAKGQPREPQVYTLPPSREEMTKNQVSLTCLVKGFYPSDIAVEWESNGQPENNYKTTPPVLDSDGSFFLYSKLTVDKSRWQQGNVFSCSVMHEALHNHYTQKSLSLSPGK
Chain of PD-L1 (human) (Q9NZQ7 19-290 limits assumed): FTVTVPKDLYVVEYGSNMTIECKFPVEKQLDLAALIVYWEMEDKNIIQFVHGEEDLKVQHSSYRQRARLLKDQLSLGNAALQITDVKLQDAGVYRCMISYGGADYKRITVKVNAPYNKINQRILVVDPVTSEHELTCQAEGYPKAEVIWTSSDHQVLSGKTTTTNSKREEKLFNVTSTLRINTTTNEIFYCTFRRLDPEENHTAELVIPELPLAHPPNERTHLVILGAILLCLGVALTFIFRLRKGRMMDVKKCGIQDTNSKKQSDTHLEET
Chain of Domain 1: CD86 WT / Domain 2: CD80 WT / Fc (Fc fusion) (chain): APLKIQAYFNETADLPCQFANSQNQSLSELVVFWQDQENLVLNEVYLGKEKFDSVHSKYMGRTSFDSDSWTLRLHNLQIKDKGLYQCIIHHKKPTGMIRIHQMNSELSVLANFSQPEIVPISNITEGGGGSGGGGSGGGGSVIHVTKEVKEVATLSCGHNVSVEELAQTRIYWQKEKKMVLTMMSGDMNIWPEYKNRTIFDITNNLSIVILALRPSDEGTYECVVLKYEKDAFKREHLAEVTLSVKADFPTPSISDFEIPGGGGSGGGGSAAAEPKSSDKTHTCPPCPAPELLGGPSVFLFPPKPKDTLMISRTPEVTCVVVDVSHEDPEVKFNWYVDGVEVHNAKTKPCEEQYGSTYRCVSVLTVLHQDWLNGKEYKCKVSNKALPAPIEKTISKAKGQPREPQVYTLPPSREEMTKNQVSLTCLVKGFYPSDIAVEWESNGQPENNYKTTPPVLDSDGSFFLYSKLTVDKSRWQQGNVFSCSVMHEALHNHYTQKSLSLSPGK
Chain of CTLA4 (human) (P16410 36-223 limits assumed): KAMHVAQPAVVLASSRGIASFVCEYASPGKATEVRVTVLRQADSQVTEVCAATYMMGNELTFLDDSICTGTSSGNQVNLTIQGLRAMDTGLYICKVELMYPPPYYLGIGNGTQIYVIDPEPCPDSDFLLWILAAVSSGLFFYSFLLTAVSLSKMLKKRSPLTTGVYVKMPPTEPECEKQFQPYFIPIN
Chain of CD80 (Homo sapiens (Human)) (P33681 35-288 limits assumed, form in doubt): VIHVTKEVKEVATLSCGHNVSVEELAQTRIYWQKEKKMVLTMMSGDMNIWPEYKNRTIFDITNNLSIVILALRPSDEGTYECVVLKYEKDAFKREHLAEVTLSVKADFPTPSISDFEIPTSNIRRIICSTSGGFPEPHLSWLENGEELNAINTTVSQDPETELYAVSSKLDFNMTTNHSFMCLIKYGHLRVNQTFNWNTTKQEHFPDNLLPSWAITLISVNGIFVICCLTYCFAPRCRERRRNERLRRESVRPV
Chain of human ICOS as used for the 'ICOS OD' read-out of Table 14 (human) (Q9Y6W8 whole entry): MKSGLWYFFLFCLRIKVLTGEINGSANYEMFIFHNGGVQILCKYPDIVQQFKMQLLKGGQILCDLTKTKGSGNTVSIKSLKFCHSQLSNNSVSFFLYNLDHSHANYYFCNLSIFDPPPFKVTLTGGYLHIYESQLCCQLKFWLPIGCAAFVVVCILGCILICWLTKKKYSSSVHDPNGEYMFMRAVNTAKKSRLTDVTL

variant PD-L2 IgV-Fc I13V, H15Q, T47A, Q82R, V89D (SEQ ID NO 1545) (Fc fusion)
MFI at 50 nM [1]: 61000 | Fortebio binding to PD-1-Fc Response Units (Response Units) [2]: 1.45 | Fold increase over wildtype PD-L2 IgV-Fc [3]: 6.2 fold

variant PD-L1 ECD-Fc I36T, G52R, M97L, V112A, K144E, V175A, P198T (Fc fusion)
Fold Change Compared to WT PD-L1 [4]: 0 fold | MFI at 20 nM [5]: 81 | MFI at 20 nM [6]: 149

ICOSL variant N52S/S54P ECD-Fc fusion
ICOS OD [7]: 1.5 OD

CD155 Wild type IgV-Fc (from UniProt P15151 24-139) (Fc fusion)
MFI [8]: 2720 | MFI [9]: 3720 | MFI [10]: 3080

CD155 P18S, F91S IgV-Fc (from UniProt P15151 24-139) (Fc fusion)
MFI [9]: 409000 | MFI [10]: 147000

variant PD-L2 IgV-Fc I13V, H15Q, T47A, R76G, V89D (Fc fusion)
MFI at 50 nM [1]: 53700 | Fortebio binding to PD-1-Fc Response Units (Response Units) [2]: 1.6

variant PD-L2 IgV-Fc H15Q, Q82R, V89D (Fc fusion)
MFI at 50 nM [1]: 49700 | Fortebio binding to PD-1-Fc Response Units (Response Units) [2]: 1.2

CD155 A81V, L83P IgV-Fc (from UniProt P15151 24-139) (Fc fusion)
MFI [8]: 2910 | MFI [10]: 2620

Domain 1: CD80 WT / Domain 2: CD80 WT / Fc (Fc fusion)
MFI [11]: 1630 | MFI [12]: 4700 | MFI [13]: 6300

CD112 variant Y33H, A46T, Q79R, N106I, S118F IgV-Fc (from UniProt Q92692 32-156) (Fc fusion)
MFI at 100 nM [14]: 15600 MFI

Domain 1: CD86 WT / Domain 2: CD80 WT / Fc (Fc fusion)
MFI [11]: 4950 | MFI [13]: 1520

CD112 ECD-Fc (from UniProt Q92692 32-360) (Fc fusion)
MFI at 100 nM [15]: 1100 MFI

CD155 variant IgV-Fc P18L, E37S, Q62M, G80S, A81P, G99Y, S112N (from UniProt P15151 24-139) (Fc fusion)
MFI at 100 nM [16]: 5900 MFI | MFI at 100 nM [17]: 3340 MFI

CD155 P18L, L79V, F91S IgV-Fc (from UniProt P15151 24-139) (Fc fusion)
MFI [8]: 4070 | MFI [9]: 5140 | MFI [10]: 3280

CD155 P18T, F91S, R94H IgV-Fc (from UniProt P15151 24-139) (Fc fusion)
MFI [8]: 2940 | MFI [9]: 3590 | MFI [10]: 2510

variant PD-L2 IgV-Fc H15Q, N24S, T47A, Q72H, R76G, V89D (Fc fusion)
MFI at 50 nM [1]: 32100 | Fortebio binding to PD-1-Fc Response Units (Response Units) [2]: 0.4

CD155 variant IgV-Fc P18S, T45S, T61K, S65W, S67A, F91S, G111R (from UniProt P15151 24-139) (Fc fusion)
MFI at 100 nM [16]: 125000 MFI | MFI at 100 nM [18]: 2110 MFI | MFI at 100 nM [17]: 2220 MFI

PD-L1 IgV I20L, D43G, N45D, V58A, N78I Fc fusion
MFI at 50 nM [19]: 72700 | Fold increase over wildtype PD-L1 IgV-Fc [20]: 13.9 fold

PD-L1 IgV A33D, S75P, D104G Fc fusion
MFI at 50 nM [19]: 251 | Fold increase over wildtype PD-L1 IgV-Fc [20]: 0 fold
